Test results: paper PMC3496063 (Structure (London, England : 1993), 2012)

Target: the molecule itself
Assay: SEC-MALS

B1: His6-Plk4 PB1-PB2 (domain or fragment, D. melanogaster, UniProt O97143 382-602, looked up)
chain: DRISVPPLNTKRLLPTRYKTKNAIMSILRNGEVVLEFLKFRPTYNEDRINDICRISDDGQRIIIYQPDPGRGLPVREQPPDLQIPSGDCVYNYDNLPSKHWKKYIYGARFVGLVKSKTPKVTYFSTLGKCQLMETMTDFEIRFYSGAKLLKTPSEGLKVYDRNGMLLSDYSCSESRSLIEHGNECFTHCVNISNALEVAQTKDNSCFPVTIGRRPITDVQP
- stoichiometry N: 2
